Data on three substances can be found in PMC9168731.

A value given as a limit tells only on which side of the number the result lay.

For experiment [1], the target named is S. pombe Arp2/3 complex (S. pombe) (UniProt Q9UUJ1).
Experiment [2] shares this target. The source holds these as a separate data set.

UniProt Q9UUJ1, sequence (Q9UUJ1 whole entry, looked up, one chain of several): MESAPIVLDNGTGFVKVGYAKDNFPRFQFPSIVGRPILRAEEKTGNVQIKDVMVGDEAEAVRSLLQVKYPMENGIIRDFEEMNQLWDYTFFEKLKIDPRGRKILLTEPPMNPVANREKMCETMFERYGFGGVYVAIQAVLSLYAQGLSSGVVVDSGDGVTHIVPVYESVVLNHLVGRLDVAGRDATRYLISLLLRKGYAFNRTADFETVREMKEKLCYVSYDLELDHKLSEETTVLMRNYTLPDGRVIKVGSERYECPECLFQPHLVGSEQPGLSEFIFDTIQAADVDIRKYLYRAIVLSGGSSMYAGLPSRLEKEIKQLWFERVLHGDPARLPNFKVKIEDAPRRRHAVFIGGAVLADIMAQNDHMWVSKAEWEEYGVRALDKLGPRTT

In experiment [1], “Dip1(R301E) (from UniProt O74771 1-374) (natural protein)” had an activation of Arp2/3 complex, pyrene actin polymerization assay (3 μM 15% pyrene-labeled actin, 50 nM SpArp2/3 complex, 5 μM Dip1) (% reduction compared to WT Dip1) of more than 60.
In the case of “Schizosaccharomyces pombe WDS protein Dip1, WT (from UniProt O74771 1-374) (natural protein)”, in experiment [2], the maximum polymerization rate, pyrene actin polymerization assay (3 μM 15% pyrene-labeled actin, 50 nM SpArp2/3 complex, 5 μM Dip1); 2.8 nM/s for reactions without Dip1 is 20 nM/s.
Still for that read-out and setting: the same measure for “Dip1(N292K) (from UniProt O74771 1-374) (natural protein)”: 8 nM/s.
